Results from publication PMC10644352, “Bromodomain Factor 5 as a Target for Antileishmanial Drug Discovery” (ACS Infectious Diseases, 2023).

Assays:
[1] = target: 5-FAM-labeled H2B(9-23)K9Ac K15Ac K19Ac K21Ac peptide of L. donovani histone H2B (Leishmania donovani); experiment: fluorescence polarisation; 800 nM 5-FAM peptide, protein 0-300 μM; 20 mM HEPES, 500 mM NaCl, 1 mg/mL BSA, pH 7.5; 30 min at room temperature; one-site-specific binding fit (two-site for BD5T); n = 3
[2] = target: 5-FAM-labeled H2B(8-16)K9Ac K15Ac peptide of L. donovani histone H2B (Leishmania donovani); experiment: as above
[3] = target: 5-FAM-labeled H2B(17-23)K19Ac K21Ac peptide of L. donovani histone H2B (Leishmania donovani); experiment: as above
[4] = target: unlabeled pan-acetylated peptide based on the H2B(9-23) sequence of L. donovani histone H2B (Leishmania donovani); experiment: thermal shift assay; 2.1 μM BD5T, 2x SYPRO orange, peptide at 400 μM, 20 mM HEPES, 500 mM NaCl, pH 7.5; 25 to 95 °C; n = 6

Row | Substance | Kd [1] | Kd [2] | Kd [3] | ΔTm at 400 μM peptide [4]
1 | Leishmania donovani bromodomain factor 5 (LdBDF5) first bromodomain, recombinant BD5.1 (domain or fragment) | 117 µM | 170 µM | 77.5 µM | –
2 | Leishmania donovani bromodomain factor 5 (LdBDF5) second bromodomain, recombinant BD5.2 (domain or fragment) | 463 µM | 366 µM | 160 µM | –
3 | Leishmania donovani bromodomain factor 5 (LdBDF5) tandem bromodomain pair, recombinant BD5T (domain or fragment) | – | – | – | 0.6 °C
